The data set deals with the molecule itself. Nature of the data set: SEC. (In gel filtration, larger molecules generally elute earlier.)

Experimental findings from paper PMC2814116 (Journal of Experimental Botany, 2009) are described below.

B1: Recombinant PCNA2 protein of Arabidopsis thaliana (AtPCNA2) (natural protein, UniProt Q9ZW35 1-264, looked up)
chain: MLELRLVQGSLLKKVLEAVKDLVNDANFDCSTTGFSLQAMDSSHVALVSLLLRSEGFEHYRCDRNLSMGMNLGNMSKMLKCAGNDDIITIKADDGSDTVTFMFESPTQDKIADFEMKLMDIDSEHLGIPDAEYHSIVRMPSGEFSRICKDLSSIGDTVVISVTKEGVKFSTAGDIGTANIVLRQNTTVDKPEDAIVIEMNEPVSLSFALRYMNSFTKATPLSETVTISLSSELPVVVEYKVAEMGYIRYYLAPKIEEEEDTKPE
Take B1: the binding result was “binds”.
